Experimental data published in patent publication US20220275043A1.

Key:
[1] = molecular target: single-chain SIINFEKL-H2Kb expressed on K562 cells (mouse); assay: flow cytometry, purified OT1-TCR-Igg at 20 nM on K562 cells expressing single-chain SIINFEKL-H2Kb
[2] = molecular target: single-chain SIINFEKL-H2Kb expressed on K562 cells (mouse); assay: flow cytometry dot plot (APC-A against Pacific Blue-A) of K562 cells expressing single-chain SIINFEKL-H2Kb, stained with raw supernatant; number printed in the gate 'TCR-Igg pos stain' (same gate in the Negative ctl panel: 1.15)

percent of cells stained at 20 nM [1]: 100%
TCR-Igg pos stain [2]: 39.3
Substance: OT1-TCR-Igg (OTI TCRα-LZL-mIgG HC + OTI TCRβ-LZR-mIgG LC, two separate plasmids)
